According to PMC10434055, “Functional Characterization of Small Alarmone Synthetase and Small Alarmone Hydrolase Proteins from Treponema denticola” (Microbiology Spectrum, 2023):
Read-outs that look alike come from different tables or passages of the source.

Key:
Tde-SAS1–246 = tested on: T1, Tde-SAS1–246; assay: AMP by-product quantified by Mono Q anion-exchange chromatography; type: biochemical, Treponema denticola; settings: 5 mM ATP, 10 mM MgCl2, pH 8.8, 37 °C, no added alarmone
T1 construct: gene TDE1711; N-terminal catalytic domain, residues 1-246, TPR domain removed; pET28a recombinant in E. coli BL21(DE3), IMAC purified; recombinant MW 32,557 Da; homotetramer (SEC ~160 kDa)

Tde-SAS = tested on: T2, Tde-SAS; assay: as above; type: biochemical, Treponema denticola; settings: 5 mM ATP, 10 mM MgCl2, pH 8.8, 37 °C, no added alarmone
T2 construct: gene TDE1711; full length, 410 aa; pET28a recombinant in E. coli BL21(DE3), IMAC purified; recombinant MW 51,318 Da; homotetramer (SEC ~220 kDa)

[1] = target: Tde-SAS_(1–246), catalytic domain of Treponema denticola small alarmone synthetase (Treponema denticola ATCC 35405); assay: SEC; size-exclusion chromatography of the purified recombinant protein; oligomeric state from the apparent MW against the monomer's calculated MW; column and buffer not given
[2] = target: Treponema denticola small alarmone hydrolase Tde-SAH (TDE1690) (Treponema denticola ATCC 35405); assay: as above
[3] = target: Treponema denticola small alarmone synthetase Tde-SAS (TDE1711) (Treponema denticola ATCC 35405); assay: as above
[4] = substrate: Nc1nc2c(ncn2[C@@H]2O[C@H](COP(=O)(O)O)[C@@H](OP(=O)(O)OP(=O)(O)O)[C@H]2O)c(=O)[nH]1; assay: pyrophosphatase-coupled continuous spectrophotometric phosphate-release assay (EnzChek, MESG/PNP); type: biochemical, Treponema denticola; settings: 1 mM MnCl2, pH 8.4, 37 °C
[5] = substrate: Nc1nc2c(ncn2[C@@H]2O[C@H](COP(=O)(O)OP(=O)(O)O)[C@@H](OP(=O)(O)OP(=O)(O)O)[C@H]2O)c(=O)[nH]1; assay: as above; type: biochemical, Treponema denticola; settings: 1 mM MnCl2, pH 8.4, 37 °C
[6] = substrate: Nc1nc2c(ncn2[C@@H]2O[C@H](COP(=O)(O)OP(=O)(O)OP(=O)(O)O)[C@@H](OP(=O)(O)OP(=O)(O)O)[C@H]2O)c(=O)[nH]1; assay: as above; type: biochemical, Treponema denticola; settings: 1 mM MnCl2, pH 8.4, 37 °C

Molecule: Nc1nc2c(ncn2[C@@H]2O[C@H](COP(=O)(O)OP(=O)(O)O)[C@@H](O)[C@H]2O)c(=O)[nH]1 [GDP]
- Km (Tde-SAS1–246; read-out: Km(GDP)): 1.03 ± 0.3 mM
- Km (Tde-SAS; read-out: Km(GDP)): 5.29 ± 2.61 mM

Molecule: Nc1nc2c(ncn2[C@@H]2O[C@H](COP(=O)(O)O)[C@@H](O)[C@H]2O)c(=O)[nH]1 [GMP]
- Km (Tde-SAS1–246; read-out: Km(GMP)): 3.44 ± 0.6 mM
- Km (Tde-SAS; read-out: Km(GMP)): 11.7 ± 1.69 mM

Molecule: Nc1nc2c(ncn2[C@@H]2O[C@H](COP(=O)(O)OP(=O)(O)OP(=O)(O)O)[C@@H](O)[C@H]2O)c(=O)[nH]1 [GTP]
- Km (Tde-SAS1–246; read-out: Km(GTP)): 2.91 ± 0.75 mM
- Km (Tde-SAS; read-out: Km(GTP)): 6.09 ± 1.01 mM

Molecule: Tde-SAS_(1–246), catalytic domain of Treponema denticola small alarmone synthetase (domain or fragment)
- stoichiometry N [1]: 4

Molecule: Treponema denticola small alarmone hydrolase Tde-SAH (TDE1690) (enzyme)
- stoichiometry N [2]: 2

Molecule: Treponema denticola small alarmone synthetase Tde-SAS (TDE1711) (enzyme)
- stoichiometry N [3]: 4

B1: Tde-SAH (Treponema denticola ATCC 35405) (protein)
chain: MLSFDSNKEFALTRDLGVLKGIYLAPYMQVATALIGKARHAGGNMFRHQVDTMAILIDYGYIDSVLLKASLIHDVIEDIEDFNVNEILSIDSESGQVYELVLEVTKKKGQEKTEYLKNIIKNGSEKAKILKCADRISNMISLGFVTDSEFIERYCNETELYIFPIALEVNFEMYKELMALVVSRRQYLVECGYLEERVKKMRKAR
notes: full length (205 aa in the introduction, 210 aa in the abstract); pET28a recombinant in E. coli BL21(DE3), IMAC purified; recombinant MW 27,091 Da; homodimer (SEC ~44 kDa)
- Km [4]: 0.12 mM
- kcat [4]: 0.54 ± 0.04 s⁻¹
- Km [5]: 0.11 mM
- kcat [5]: 0.79 ± 0.07 s⁻¹
- Km [6]: 0.21 mM
